Results as given in patent US20220265772A1, “USES OF DAN FAMILY BMP ANTAGONISTS FOR INHIBITING OCULAR NEOVASCULARIZATION AND TREATING OCULAR CONDITIONS” (9636137 Canada Inc., priority 2019, published 2022).

What was measured:
mouse choroidal explants = assay: Choroidal explant sprouting in culture; assay type: cell-based; conditions: P5 mouse choroidal explants exposed to serum and VEGF
Experimental: FIG. 1 is a panel with pictures, bar graphs, and graphs showing that Dand5 reduces VEGF-mediated sprouting angiogenesis in cultured endothelial cells. FIG. 1A: HUVECs grown in a fibrinogen gel were treated with VEGF to induce tube formation in the presence or absence of Dand5. […] FIG. 1B: HUVECs were plated to confluency and scratched to stimulate a wound in the presence or absence of Dand5. Scale bar, 100 μm. FIG. 1C: Quantification of tube formation in FIG. 1A n=3, *p<0.05, **p<0.01). FIG. 1E: Choroids were isolated from wild-type mice and cultured in vitro in the absence or presence of Dand5. […] FIG. 1F: Quantification of sprouting areas in choroidal sprouts (n=3, ***p<0.0001). […] FIG. 1H: HUVECs were cultured in the presence or absence of Dand5 and analyzed by immunofluorescence using antibodies against phospho-Histone 3 (PH3), a marker of cellular mitosis, and phalloidin and DAPI (nuclei). […] FIG. 1I: Quantification immunofluorescent staining of phospho-histone 3 positive cells. […] FIG. 1K: Quantification of immunofluorescent staining of cleaved caspase 3 (n=2, n.s.).
To evaluate the cellular mechanisms underlying the inhibitory effects of DAND5 on endothelial cells sprouting, we assessed the effects of DAND5 on endothelial cell migration and proliferation. […]
We exposed or not HUVECs to recombinant DAND5 and measured the concentration of free radicals using DCFDA and MitoSoxRed™. […]

HUVECs = assay: Apoptosis of cultured endothelial cells (cleaved caspase 3); assay type: cell-based, human; conditions: HUVECs cultured for 18 hours
[1] = system: retinal vessels and photoreceptors; assay type: in vivo, mouse
Source text: FIG. 4 is a panel with a schematic, images and bar graphs showing that chronic intravitreal injections of Dand5 inhibits developmental angiogenesis but is not detrimental to photoreceptor survival. FIG. 4A: Schematic representation of experimental set-up (B-E). Neonatal pups received intravitreal injections of either PBS, Dand5, Flt1-Fc on P1, P7 and P14. Retinas were harvested on P28. FIG. 4B: Isolectin B4 staining of flatmount retinas (P28) described in FIG. 3A. FIG. 4C: Quantification of branch points and vessel length in retinas described in FIG. 3B (n=6 mice/group; *p<0.05, **p<0.01). FIG. 4D: Immunofluorescent images of sectioned retinas described in FIG. 3A stained with antibodies against s-opsin and rhodopsin and DAPI (nuclei). FIG. 4E: Quantification of the number of nuclei present in the outer nuclear layer of retinas treated as described in (4A) (n=4, ns). Patients affected by ocular neovascular diseases such as retinopathy of prematurity (ROP) and wet AMD are typically treated with VEGF inhibitors to control pathological angiogenesis. […] Particularly, studies have shown that long-term treatment with VEGF inhibitors in mice leads to increased photoreceptor apoptosis and thinning of the neural retina (4). We therefore addressed the long-term effects of DAND5 on photoreceptors and the neural retina. […]

VEGF signaling = VEGF signaling and VEGF receptor levels in HUVECs (immunoblotting); assay type: cell-based, human
Experimental: FIG. 6A: HUVECs were grown in complete media were in the absence or presence of Dand5 or IWR1 for up to 24 hours. Protein extracts were analyzed by immunoblotting (representative image of n=3 experiments). FIG. 6C: HUVECs were grown in low serum media for 16 h in the absence or presence of 60 ng/mL of Dand5. VEGF signaling was induced by addition of 25 ng/mL of rhVEGF for up to 60 minutes. Protein extracts were analyzed by immunoblotting (representative image of n=3). FIG. 6D: Quantification of the mean gray value of phosphorylated proteins normalized to the mean gray value of β-Actin of immunoblots in FIG. 6C (n=3, ns). FIG. 6E: HUVECs were plated in the presence or absence of 60 ng/mL of Dand5. Proteins extracts were analyzed for expression of VEGF receptors (representative image of n=3).
Cells were washed with cold PBS and extracted in Laemmli's buffer, followed by sonication. Samples were run on SDS-PAGE gels and transferred onto nitrocellulose membranes. Membranes were blocked with 5% Bovine Serum Albumin (BSA) and probed with primary antibodies overnight at 4° C.: beta-Catenin (Cell Signaling Technology), phospho-beta-catenin (Cell Signaling Technology), Axin2 (Cell Signaling Technology), beta-Actin (Santa Cruz Technologies). HRP-conjugated secondary antibodies (Vector Laboratories) were used to detect primary antibodies.
HUVECs were starved overnight in the presence or absence of DAND5, followed by VEGF stimulation for up to 60 minutes. […] Likewise, VEGFR2 and VEGFR1 levels were unaffected upon HUVECs exposure to DAND5 for 0.5-24 h (FIG. 6 E, F).

mitochondria = assay: Immunofluorescence localization of DAND5 in treated HUVECs; assay type: cell-based, human; conditions: HUVECs exposed for 1 h
Experimental: FIG. 9: HUVECs were plated to confluence and exposed or not to Dand5 for 1 hour. Dand5 was not detected before treatment in HUVECs (not shown).
To test where DAND5 is localizes in treated HUVECs, we exposed HUVECs to human recombinant DAND5 for 1 h and performed immune-fluorescence using human anti-mitochondrial antigen antibody and a human anti-DAND5 antibody.

Wnt signaling = conditions: previous study (5); cited from earlier work

B1: DAND5: human recombinant DAND5/COCO biologically active fragment produced in E. coli, predicted 18.2 kDa monomer, R&D systems 3047-CC-050 (protein)
chain: MRPEPQSPRPQSWAAANQTWALGPGALPPLVPASALGSWKAFLGLQKARQLGMGRLQRGQDEVAAVTLPLNPQEVIQGMCKAVPFVQVFSRPGCSAIRLRNHLCFGHCSSLYIPGSDPTPLVLCNSCMPARKRWAPVVLWCLTGSSASRRRVKISTMLIEGCHCSPKA
With B1 the “growth of choroidal explants” value (mouse choroidal explants) was “inhibited the growth of P5 mouse choroidal explants exposed to serum and VEGF”, the “proportion of cleaved caspase 3 (CC3)-positive cells” value (HUVECs) was “did not show differences in the proportion of cleaved caspase 3 (CC3)-positive cells” and the “photoreceptor apoptosis (cleaved-caspase 3 staining)” value ([1]; mouse, in vivo) was “did not reveal significant apoptosis”. The “retinal blood vessel formation / density of retinal vessels” value ([1]; repeated injections from P1 for 4 weeks) was “striking reduction in blood vessel formation”, the “VEGFR2 phosphorylation at Y1175” value (VEGF signaling; HUVECs cultured in the presence of DAND5) was “unaffected” and the “VEGFR2 and VEGFR1 levels” value (VEGF signaling; HUVECs exposed for 0.5-24 h) was “unaffected”. The “VEGF-induced phosphorylation of VEGF downstream effectors” value (VEGF signaling; HUVECs starved overnight with DAND5, VEGF stimulation up to 60 minutes) was “no significant decrease in VEGF-induced phosphorylation of VEGF downstream effectors”, the co-localization with mitochondria (mitochondria) was “robust co-localization of DAND5 with mitochondria” and the co-localization with mitochondria (mitochondria; listed as Dand5) was “co-localizes with mitochondria”. For the same molecule, the “Wnt signaling in photoreceptors” value (Wnt signaling) was “potent inhibitor of Wnt signaling in photoreceptors”.
